From FireProtDB (doi:10.1002/prot.20309)

B1: Beta-lactoglobulin wild type, P02754 (protein)
chain: MKCLLLALALTCGAQALIVTQTMKGLDIQKVAGTWYSLAMAASDISLLDAQSAPLRVYVEELKPTPEGDLEILLQKWENGECAQKKIIAEKTKIPAVFKIDALNENKVLVLDTDYKKYLLFCMENSAEPEQSLACQCLVRTPEVDDEALEKFDKALKALPMHIRLSFNPTQLEEQCHI
B2: Beta-lactoglobulin-1A/1C wild type, P04119 (protein)
chain: MRCLLLTLGLALLCGVQAVEVTPIMTELDTQKVAGTWHTVAMAVSDVSLLDAKSSPLKAYVEGLKPTPEGDLEILLQKRENDKCAQEVLLAKKTDIPAVFKINALDENQLFLLDTDYDSHLLLCMENSASPEHSLVCQSLARTLEVDDQIREKFEDALKTLSVPMRILPAQLEEQCRV

Details: 25 °C, GdnHCl, Phosphate 10 mM, whole UniProt chain shown
[1] = Bos taurus, pH 2, CD, transition: 3

| Protein | denaturant m value [1] [kcal/mol/M] | denaturant midpoint (higher = more stable) [1] [M] | unfolding free energy [1] [kcal/mol] | denaturant m value (Bos taurus, pH 6, CD) [kcal/mol/M] | denaturant midpoint (higher = more stable) (Bos taurus, pH 6, CD) [M] | unfolding free energy (Bos taurus, pH 6, CD) [kcal/mol] | denaturant m value (Sus scrofa, pH 2, Fluorescence) [kcal/mol/M] | denaturant midpoint (higher = more stable) (Sus scrofa, pH 2, Fluorescence) [M] | unfolding free energy (Sus scrofa, pH 2, Fluorescence) [kcal/mol] | denaturant m value (Sus scrofa, pH 2, NMR) [kcal/mol/M] | denaturant midpoint (higher = more stable) (Sus scrofa, pH 2, NMR) [M] | unfolding free energy (Sus scrofa, pH 2, NMR) [kcal/mol] | denaturant m value (Sus scrofa, pH 6, NMR) [kcal/mol/M] | denaturant midpoint (higher = more stable) (Sus scrofa, pH 6, NMR) [M] | unfolding free energy (Sus scrofa, pH 6, NMR) [kcal/mol] |
| --- | --- | --- | --- | --- | --- | --- | --- | --- | --- | --- | --- | --- | --- | --- | --- |
| B1 | 1 | 3.8 | 12.8 | 4.1 | 2.8 | 11.5 | – | – | – | – | – | – | – | – | – |
| B2 | – | – | – | – | – | – | 2.2 | 1 | 2.1 | 3.5 | 0.7 | 2.3 | 4.2 | 1.1 | 4.6 |
